{"source": "paper PMC8703291", "about": "“Non-Cationic RGD-Containing Protein Nanocarrier for Tumor-Targeted siRNA Delivery” (Pharmaceutics, 2021)", "proteins": {"B1": {"name": "dual-RGD-dsRBD-18his (dual-RGD) recombinant protein (designed binder)", "chain": "CDCRGDCFCAGDLSAGFFMEELNTYRQKQGVVLKYQELPNSGPPHDRRFTFQVIIDGREFPEGEGRSKKEAKNAAAKLAVEILNKEKKAVSPLLLTTTNSSEGLSMGNYIGLINRIAQKKRLTVNYEQCASGVHGPEGFHYKCKMGQKEYSIGTGSTKQEAKQLAAKLAYLQILSEETSVGRGDS", "notes": "cyclic RGD peptide RGD-4C appended to the N-terminal of dsRBD-18His; linear GRGDS (Gly-Arg-Gly-Asp-Ser) peptide added to the C-terminal of dsRBD-18His; MW ~26 kDa (monomer); also called dual-RGD carrier; source: E. coli BL21 (DE3), purified (nickel resin), dialysed against PBS with 10% glycerol and 0.1% β-ME"}}, "molecular_target": "the molecule itself", "assay": "non-reducing SDS-PAGE; purified dual-RGD under non-reducing conditions, Coomassie blue staining"}
{"protein": "B1", "values": [{"measurement": "stoichiometry N", "value": 2}]}
